Blank lines part the entries; values can stand above or below the binder they belong to.
How the values were obtained:
P2-AA = biological target: T1, P2-AA; experiment: two-hybrid library CCmax; conditions: mean of both orientations;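 also: natural log of median RNA to DNA barcode read ratio; higher means stronger binding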
T1 chain: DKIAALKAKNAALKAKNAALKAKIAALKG

P2-AA-1HGe-Q = biological target: T2, P2-AA-1HGe-Q; experiment: two-hybrid library CCmax; conditions: mean of both orientations;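 also: natural log of median RNA to DNA barcode read ratio; higher means stronger binding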
T2 chain: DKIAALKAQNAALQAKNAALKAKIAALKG

P2-AA-1HGe-A = biological target: T3, P2-AA-1HGe-A; experiment: two-hybrid library CCmax; conditions: mean of both orientations;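 also: natural log of median RNA to DNA barcode read ratio; higher means stronger binding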
T3 chain: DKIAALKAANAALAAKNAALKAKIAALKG

P2-AA-1HGe-D = biological target: T4, P2-AA-1HGe-D; experiment: two-hybrid library CCmax; conditions: mean of both orientations;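 also: natural log of median RNA to DNA barcode read ratio; higher means stronger binding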
T4 chain: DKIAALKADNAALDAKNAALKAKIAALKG

P2-AA-1HGe-M = biological target: T5, P2-AA-1HGe-M; experiment: two-hybrid library CCmax; conditions: mean of both orientations;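 also: natural log of median RNA to DNA barcode read ratio; higher means stronger binding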
T5 chain: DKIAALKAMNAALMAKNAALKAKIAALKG

P2-AA-1HGe-R = biological target: T6, P2-AA-1HGe-R; experiment: two-hybrid library CCmax; conditions: mean of both orientations;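 also: natural log of median RNA to DNA barcode read ratio; higher means stronger binding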
T6 chain: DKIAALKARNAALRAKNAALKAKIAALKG

P2-AA-1HGe-T = biological target: T7, P2-AA-1HGe-T; experiment: two-hybrid library CCmax; conditions: mean of both orientations
T7 chain: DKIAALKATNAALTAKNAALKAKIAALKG

4H3427-bA = biological target: T8, 4H3427-bA; experiment: two-hybrid library CCNG1
T8 chain: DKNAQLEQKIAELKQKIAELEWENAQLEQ

4H118-bA = biological target: T9, 4H118-bA; experiment: two-hybrid library CCNG1
T9 chain: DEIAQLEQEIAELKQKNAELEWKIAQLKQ

4H855-bA = biological target: T10, 4H855-bA; experiment: two-hybrid library CCNG1
T10 chain: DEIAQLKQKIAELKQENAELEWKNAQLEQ

4H953-bA = biological target: T11, 4H953-bA; experiment: two-hybrid library CCNG1
T11 chain: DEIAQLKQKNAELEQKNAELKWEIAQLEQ

4H918-bA = biological target: T12, 4H918-bA; experiment: two-hybrid library CCNG1
T12 chain: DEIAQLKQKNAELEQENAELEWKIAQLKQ

O8-bH = biological target: T13, O8-bH; experiment: two-hybrid library CCNG1
T13 chain: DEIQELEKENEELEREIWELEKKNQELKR

4H754-bA = biological target: T14, 4H754-bA; experiment: two-hybrid library CCNG1
T14 chain: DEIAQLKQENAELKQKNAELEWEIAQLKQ

4H112-bA = biological target: T15, 4H112-bA; experiment: two-hybrid library CCNG1
T15 chain: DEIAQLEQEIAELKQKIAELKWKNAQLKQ

4H346-bA = biological target: T16, 4H346-bA; experiment: two-hybrid library CCNG1
T16 chain: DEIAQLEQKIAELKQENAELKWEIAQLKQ

4H683-bA = biological target: T17, 4H683-bA; experiment: two-hybrid library CCNG1
T17 chain: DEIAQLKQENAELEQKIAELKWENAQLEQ

4H4073-bA = biological target: T18, 4H4073-bA; experiment: two-hybrid library CCNG1
T18 chain: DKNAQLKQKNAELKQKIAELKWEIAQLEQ

4H3010-bA = biological target: T19, 4H3010-bA; experiment: two-hybrid library CCNG1
T19 chain: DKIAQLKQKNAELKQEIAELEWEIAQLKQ

4H2586-bA = biological target: T20, 4H2586-bA; experiment: two-hybrid library CCNG1
T20 chain: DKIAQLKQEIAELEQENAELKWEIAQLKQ

4H797-bA = biological target: T21, 4H797-bA; experiment: two-hybrid library CCNG1
T21 chain: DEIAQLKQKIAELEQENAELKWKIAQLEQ

4H3112-bA = biological target: T22, 4H3112-bA; experiment: two-hybrid library CCNG1
T22 chain: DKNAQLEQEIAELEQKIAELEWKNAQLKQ

4H2702-bA = biological target: T23, 4H2702-bA; experiment: two-hybrid library CCNG1
T23 chain: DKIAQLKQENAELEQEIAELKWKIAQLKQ

4H2627-bA = biological target: T24, 4H2627-bA; experiment: two-hybrid library CCNG1
T24 chain: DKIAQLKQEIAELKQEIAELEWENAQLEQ

4H1831-bA = biological target: T25, 4H1831-bA; experiment: two-hybrid library CCNG1
T25 chain: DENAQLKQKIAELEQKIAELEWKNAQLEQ

4H170-bA = biological target: T26, 4H170-bA; experiment: two-hybrid library CCNG1
T26 chain: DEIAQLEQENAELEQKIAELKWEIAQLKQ

4H575-bA = biological target: T27, 4H575-bA; experiment: two-hybrid library CCNG1
T27 chain: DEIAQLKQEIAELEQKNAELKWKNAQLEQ

4H2673-bA = biological target: T28, 4H2673-bA; experiment: two-hybrid library CCNG1
T28 chain: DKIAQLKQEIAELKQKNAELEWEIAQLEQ

4H1158-bA = biological target: T29, 4H1158-bA; experiment: two-hybrid library CCNG1
T29 chain: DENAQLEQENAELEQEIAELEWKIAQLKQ

4H968-bA = biological target: T30, 4H968-bA; experiment: two-hybrid library CCNG1
T30 chain: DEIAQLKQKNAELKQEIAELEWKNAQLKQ

4H3926-bA = biological target: T31, 4H3926-bA; experiment: two-hybrid library CCNG1
T31 chain: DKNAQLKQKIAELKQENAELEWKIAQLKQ

4H780-bA = biological target: T32, 4H780-bA; experiment: two-hybrid library CCNG1
T32 chain: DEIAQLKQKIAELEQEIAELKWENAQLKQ

4H3907-bN = biological target: T33, 4H3907-bN; experiment: two-hybrid library CCNG1
T33 chain: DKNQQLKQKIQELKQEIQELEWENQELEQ

4H457-bA = biological target: T34, 4H457-bA; experiment: two-hybrid library CCNG1
T34 chain: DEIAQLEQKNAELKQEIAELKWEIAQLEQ

- interaction score (P2-AA): 1.87
- interaction score (P2-AA-1HGe-Q): 1.96
- interaction score (P2-AA-1HGe-A): 1.65
- interaction score (P2-AA-1HGe-D): 1.57
- interaction score (P2-AA-1HGe-M): 1.67
- interaction score (P2-AA-1HGe-R): 2.01
- interaction score (P2-AA-1HGe-T): 2.08
Binder: DEIAALEAYNAALYAENAALEAEIAALEG [P1-AA-1HGe-Y]

- interaction score (4H3427-bA): 1.34
- interaction score (4H118-bA): -1.17
- interaction score (4H855-bA): 0.496
- interaction score (4H953-bA): 0.0535
- interaction score (4H918-bA): -1.12
- interaction score (O8-bH): -2.98
- interaction score (4H754-bA): -0.627
- interaction score (4H112-bA): 2.02
- interaction score (4H346-bA): -0.491
- interaction score (4H683-bA): 0.303
- interaction score (4H4073-bA): 1.5
- interaction score (4H3010-bA): 1.69
- interaction score (4H2586-bA): -0.329
- interaction score (4H797-bA): 0.104
- interaction score (4H3112-bA): 1.9
- interaction score (4H2702-bA): 0.586
- interaction score (4H2627-bA): 1.89
- interaction score (4H1831-bA): -0.538
- interaction score (4H170-bA): 0.905
- interaction score (4H575-bA): -0.781
- interaction score (4H2673-bA): 1.17
- interaction score (4H1158-bA): 0.722
- interaction score (4H968-bA): 0.422
- interaction score (4H3926-bA): 0.327
- interaction score (4H780-bA): -0.588
- interaction score (4H3907-bN): 1.94
- interaction score (4H457-bA): 1.18
Binder: DEIAQLEQEIAELKQKIAELKWKNAQLKQ [4H112-bA]

- interaction score (P2-AA): 1.7
- interaction score (P2-AA-1HGe-Q): 1.87
- interaction score (P2-AA-1HGe-A): 1.9
- interaction score (P2-AA-1HGe-D): 1.27
- interaction score (P2-AA-1HGe-M): 2.21
- interaction score (P2-AA-1HGe-R): 1.34
- interaction score (P2-AA-1HGe-T): 2.15
Binder: DEIAALEAWNAALWAENAALEAEIAALEG [P1-AA-1HGe-W]

From article PMC10397247
